Source: the supplement of paper PMC7877785
± gives the uncertainty stated by the source.

Assay: self-splicing fitness, log relative to wild type (ln ratio); higher = more splicing; Tetrahymena group I intron in knt gene, E. coli kanamycin selection, DiMSum; sequences stand for … in CUCUCU…GGAGGGAAAAGUUAUCAGGCAUGCACCUGGUAGCUAGUCUUUAAACCAAUAGAUUGCAUCGGUUUAAAAGGCAAGACCGUCAAAUUGCGGGAAAGGGGUCAACAGCCGUUCAGUACCAAGUCUCAGGGGAAACUUUGAGAUGGCCUUGCAAAGGGUAUGGUAAUAAGCUGACGGACAUGGUCCUAACCACGCAGCCAAGUCCUAAGUCAACAGAUCUUCUGUUGAUAUGGAUGCAGUUCACAGACUAAAUGUCGGUCGGGGAAGAUGUAUUCUUCUCAUAAGAUAUAGUCGGACCUCUCCUUAAUGGGAGCUAGCGGAUGAAGUGAUGCAACACUGGAGCCGCUGGGAACUAAUUUGUAUGCGAAAGUAUAUUGAUUAGUUUUGGAGUACUCGUGGUCG
How it was run: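 The eight P1ex-region nucleotides of an intron in the knt kanamycin-resistance gene on pET-22b(+) were all randomised and the library put into E. coli BL21(DE3). Six replicate transformations were grown overnight at 37°C or 30°C on LB agar with or without 25 μg/mL kanamycin, together with 100 μg/mL carbenicillin, 50 μM IPTG and 0.2% rhamnose. Colonies were pooled and amplicon-sequenced on an Illumina HiSeq 2500. Fitness from DiMSum is the error-weighted combination of wild-type-normalised replicate fold changes, kanamycin over none.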

Row | Sequence | self-splicing fitness (ln) (30 °C) | self-splicing fitness (ln) (37 °C)
1 | ACAGAGCAAUAUUACGCCAA | -2.92 ± 0.22 | -2.78 ± 0.32
2 | AUUUAGCAAUAUUACGGCCU | 0.607 ± 0.15 | -0.166 ± 0.16
3 | CGGGAGCAAUAUUACGAUUA | – | -3.69 ± 0.42
4 | UGGUAGCAAUAUUACGGCAA | -1.14 ± 0.086 | 0.277 ± 0.1
5 | AUUCAGCAAUAUUACGCCAA | -2.22 ± 0.29 | -1.19 ± 0.27
6 | GAAUAGCAAUAUUACGAGUG | -2.01 ± 0.076 | -2.34 ± 0.13
7 | CAGCAGCAAUAUUACGAGAG | -2.38 ± 0.083 | -1.81 ± 0.089
8 | GGGGAGCAAUAUUACGCCAC | -3.28 ± 0.27 | -3.39 ± 0.39
9 | AUUGAGCAAUAUUACGAAGG | -2.69 ± 0.36 | -2.39 ± 0.3
10 | UCAGAGCAAUAUUACGACCU | -2.87 ± 0.36 | –
11 | CAGCAGCAAUAUUACGAUAG | -0.297 ± 0.063 | -0.0435 ± 0.077
12 | UCACAGCAAUAUUACGUUCA | -0.499 ± 0.074 | -0.438 ± 0.078
13 | AUGUAGCAAUAUUACGGCUC | 0.231 ± 0.27 | –
14 | AUAGAGCAAUAUUACGCACG | -1.57 ± 0.18 | -0.997 ± 0.23
15 | UAGCAGCAAUAUUACGCUUG | -2.3 ± 0.18 | -0.988 ± 0.19
16 | AGGGAGCAAUAUUACGACCG | -1.92 ± 0.35 | -0.586 ± 0.33
17 | ACCGAGCAAUAUUACGGUCU | -3.36 ± 0.1 | -1.62 ± 0.092
18 | CUUAAGCAAUAUUACGCGGU | -2.59 ± 0.14 | -2.35 ± 0.22
19 | AACCAGCAAUAUUACGCCUC | -0.868 ± 0.13 | -0.399 ± 0.16
20 | UCUUAGCAAUAUUACGAUCU | -2.59 ± 0.29 | -2.04 ± 0.29

Row | Sequence | self-splicing fitness (ln) (30 °C) | self-splicing fitness (ln) (37 °C)
21 | CCAAAGCAAUAUUACGGAAA | -1.03 ± 0.26 | -3 ± 0.38
22 | CUCGAGCAAUAUUACGGGUU | -3.47 ± 0.14 | -3.05 ± 0.16
23 | CGCCAGCAAUAUUACGUUUG | -1.17 ± 0.049 | -0.629 ± 0.072
24 | UUGCAGCAAUAUUACGGUCC | -4.25 ± 0.39 | -2.69 ± 0.26
25 | AUAAAGCAAUAUUACGAACA | 0.281 ± 0.085 | 0.425 ± 0.11
26 | CGGUAGCAAUAUUACGGCAG | -0.164 ± 0.13 | 0.767 ± 0.16
27 | UGAGAGCAAUAUUACGAAAA | – | 0.153 ± 0.41
28 | GGCGAGCAAUAUUACGCUCU | -2.72 ± 0.23 | -2.06 ± 0.2
29 | ACGGAGCAAUAUUACGAAUG | -3.88 ± 0.43 | -0.307 ± 0.27
30 | AAGGAGCAAUAUUACGUCUG | -1.18 ± 0.15 | -0.52 ± 0.27
31 | AAUCAGCAAUAUUACGCGAA | -0.0302 ± 0.071 | 0.278 ± 0.098
32 | GGGCAGCAAUAUUACGACGU | -0.265 ± 0.1 | 0.553 ± 0.12
33 | UCAGAGCAAUAUUACGAGCG | -4.27 ± 0.36 | -1.23 ± 0.14
34 | CAGAAGCAAUAUUACGUUGC | -4.27 ± 0.26 | -2.74 ± 0.25
35 | GUUCAGCAAUAUUACGGUCA | -1.42 ± 0.12 | -0.536 ± 0.086
36 | UCGUAGCAAUAUUACGGGAA | -1.71 ± 0.2 | -1.06 ± 0.16
37 | GCGUAGCAAUAUUACGUACG | -3.93 ± 0.18 | -2.88 ± 0.17
38 | CCUAAGCAAUAUUACGCACC | -3.09 ± 0.27 | -3.03 ± 0.28
39 | CUACAGCAAUAUUACGUUUA | -3.39 ± 0.22 | -2.86 ± 0.19
